The DeepSol protein solubility set

Assay: soluble on expression in E. coli; label from the status in PepcDB or PDB records

**Q.** Which “soluble on expression in E. coli” value does the source give for “GPGSMPAIVKQLPSSDDDNDQASLSPAKQYAQLGEESSPAGASRAELSNAEAGAEAEGLAQPQKTDASGAERVVDVEECSRLKAAGNELFKDGNISEALTLYRKALWCAPLKPVRPHHPATGESSGLPTPPNGSAPAASSHTATQRDETEVEQQPEDKTDYTLTAQVYCNAGFCLMKLDVKEEAAHMLSEAIRHDDSYLKAYIRRADCYYMMQKWSSAYGDYESYEKLGGVLDAQGCTRKAASKAKVDEEMQKMLGELKSLGNKILGNFGLSTDNFKFDKDPNTGGYSMRFER” here?
**A.** soluble

**Q.** For “MAHHHHHHMRILHKLGKNVFQTARRSFSLVTKQAHDFTAQGLNKNNEIINVQLSSYIGKKYCCLLFYPLNYTFVCPTEIIEFNKHVKSFEEKNVELLGISVDSVYSHLAWKNMPIEKGGIGNVNFTLVSDLNKEISKMYNVLYENSFALRGLFIIDLQGKVRHQTVNDLPLGRSVDEVLRTIDSIIHVDKTGDVCPINWKKGAKSFQPTNDSLLNYLNTEVKKE”, which “soluble on expression in E. coli” value is on record?
**A.** soluble

**Q.** For “MSFSERLLAAWYQGHPALALLRPLEALYRRVANGRRADFLSGRKPAYRAPLPVLVVGNITVGGTGKTPMILWMIEHCRARGLRVGVISRGYGARPPTTPWRVRAEQDAAEAGDEPLMIVRRSGVPLMIDPDRPRALQALLAEEQLDLVLCDDGLQHYRLARDLELVLIDAARGLGNGRCLPAGPLREPAERLESVDALLYNGADEDPDGGYAFRLQPTALINLQSGERRPLEHFPAGQEVHALAGIGNPQRFFRTLEALHWRAIPHAFPDHATYTAAELAFSPPLPLLMTEKDAVKCRAFAAADWWYLAVDAVPSPAFVAWFDARLEH”, which “soluble on expression in E. coli” value is on record?
**A.** not soluble

**Q.** Which “soluble on expression in E. coli” value does the source give for “MSLKYLVMNAGRLFLSLLKESGVNKIFIVSGTDYASLIEAKVEDSSLPEFEIVPHEITAISTAIGYALGNKLSAVAVHTTPGTANALGGIMSAFTSRIPLLVIAGRSPYTEKGNTASRNLRIHWTQEARDQGELVRQYVKYDFEIRMADQLPAVVSRAIQIMMSEPRGPVYIVLPREVSIQEVNEARRIPMDYYEPAPSPDKINKAKEMLEKSERPLIITWRAGRRKEWFESLRRFADNYNIPVLNYAGEVLNYPSSGPMALDRFDLRNSDLLLVVEAEVPYFPKKIDLDIPIVKIDVDPSYSYIPYYGFRCDLCIQSTPSNFFDYISIRPKSYDEIKELRAKQEEYKKQEIERLKDKKPIHPKYLSYEIGIVASEYNLVIFNEYQFNPRYARLNEFGSYFADLSVGYLGFALGAGVGYKIATNKDVLITTGDGSFIFGVPEAFYYVASKYPTMVVIYDNGGWLASAEAVDEVFPEGLAKSKKYYPGADFDRRFEIGKTVETFHGYYELVEDPWEIKPALIRGLEKMRRENKIAVIQVIVDKVREGHHHHHH” here?
**A.** not soluble

**Q.** Which “soluble on expression in E. coli” value does the source give for “MKFLHTADWHIGKKLHGFDLLAEQREAFEQILAIAKEEQVDAVVIAGDLYDRSVPAVEAVEIFNEMMIQMNLKEHFPVLAISGNHDSSTRLETGGPWFNQTQFHLNTRLEQAFQPIEIDNTQFYLLPYFEPIAARLYFEDETIRTIQAAMEKVVAKMQESFLPNKKQVLVSHFFVAGSEKTDSETKLTVGGLDVVPTALLEPFDYVALGHLHGKNALQAPNARYSGSPVKFSLSEMTQEKGVWLVETEAEVHFQFRALKPLRDIQQLTGSFQQLTDPAFYQEVNRENYLHVQLTDRAIIPNMMNQLRKIYPKIIGLERLNGRETSSGNQKKVVQIEQRSPEEHLHDFFNDVTGEALTEQQAQWVQEELSTLNQLERGK” here?
**A.** not soluble

**Q.** For “MKYVLIQATDNGILRRAECGGAVTALFKYLLDKKLVDGVLALKRGEDVYDGIPTFITNSNELVETAGSLHCAPTNFGKLIAKYLADKKIAVPAKPCDAMAIRELAKLNQINLDNVYMIGLNCGGTISPITAMKMIELFYEVNPLDVVKEEIDKGKFIIELKNGEHKAVKIEELEEKGFGRRKNCQRCEIMIPRMADLACGNWGAEKGWTFVEICSERGRKLVEDAEKDGYIKIKQPSEKAIQVREKIESIMIKLAKKFQKKHLEEEYPSLEKWKKYWNRCIKCYGCRDNCPLCFCVECSLEKDYIEEKGKIPPNPLIFQGIRLSHISQSCINCGQCEDACPMDIPLAYIFHRMQLKIRDTLGYIPGVDNSLPPLFNIERLEHHHHHH”, which “soluble on expression in E. coli” value is on record?
**A.** soluble

**Q.** For “GNFYAVRKGRETGIYNTWNECKNQVDGYGGAIYKKFNSYEQAKSFLG”, which “soluble on expression in E. coli” value is on record?
**A.** soluble

**Q.** With “MIDFNVDSARCTRCGQCVADCPSRIIVMATGEYPSIAPGKEFSCLRCEHCLAVCPEAAISILGFSPDGSTPLKGNLPETDQLETLIAGRRSVRRYCPENLSPELIDKLITVASCAPTGVNARKVRFTVLDDREKTAHFRDEVMERLVRLLEEEALPESKAYYARFVKVWQKHKIDLVFRDAPHLLIATAPKSLSTPRQDCVIALTTFELYAQACGIGTLWNGIATWAIEEMLPEMRQRLGIPDDHAFGYAMLFGKPAVRYARTVQHHPPEIYRVPLEHHHHHH” as the sequence, how does the “soluble on expression in E. coli” value read?
**A.** not soluble

**Q.** Which “soluble on expression in E. coli” value does the source give for “MGPRFQPDDTLYKRRNTLKVEYVPDDIVGRDNEIEEYEAALQPIINGEYPDNIFIYGKTGVGKTAVTNFLLNELRESADHFEVDLTVISLNCDGLSTSYQAAISLVNNLRGHENHIAETGHPQSKVYRLLWNELNKLSGSVIIVLDEIDHITDDTFLYQITRADNNGYIDNIQLGVIGISNDSTFREQLDAKVQSSLCETEISFPPYGTEELQKVLEQRAEIAFHESALEDGVIPLCAALGRQDGGDARRAITLLRKAGDLARTENANSVTTDHVERAQEKLEAQQSMDIMRDLTEHEQLTLYALTTLAAEGETPARSRIVYQRYKELCEFQGREPRTARRMRSFLSDFEILNLTLSEMEHRGQDGGTYRQHELNRDIATVVDALQTIIGEFGAHQSIIEYLPDSGEEFATM” here?
**A.** not soluble

**Q.** With “MKTKYVVIIQCDMAKNRCSGMRCTNAFYEKTDAFENYAKDTKYISFTCGGCSGKVVSSKLANFSRWLKKYDCIKKDEVTIHLSSCMSTDNSHYDRCPNIDYIKQIINKKGYTNIVEGSIFSKKSEKLRDEGIYKKYQ” as the sequence, how does the “soluble on expression in E. coli” value read?
**A.** not soluble

**Q.** Which “soluble on expression in E. coli” value does the source give for “MPLGLFSSGKAQVLCDEKIPGGKKKEPKQLSENKCKGVTLKLDHTRVTIEKQIAEGGFAIVYVASDRKNNKFALKRQFTKDNEKQLEACCREHSFLKQCIGHKNIVEFVDSYTNCLGNGIWECMLLTEYHQKNVLQLMNERISQNQYLTNDEILSIFTDLCEAVSFIHNRPQPIIHRDLKVENVLISSHKPPHYVLCDFGSATTQILSVEKYGVEYVKSEVERNTTMCYRSPEMIDFYSGLEIGLKSDIWALGVLLYRLCFFCVPFEESPLAIQSVNYQFPSVPNIPDEIKVLIYMLLDIDVNRRPSIYQTSVLAFEANHRKPLSEEIQNKKCTDAVPSLKSCIQLMRDGSNPRNKRDSSPRNPEAPPIQSSSKMASLSQQVPSISNISMPSGSGTVETSVAPRLRPKATTVVPNVPSISPVPPVGLPHLRLPSKGSTDETDGSQVRKVPIDFHHRQSFSGEEQLKPAAEADSAGPLSCPLIKPTDLGFTDLDKPALPRDRAQTDGKRRLPHESDIIFQQQHRRNVSDTSQISRSAFKPYSSQQTTSKTSSQVVRSVEDMSQRQNGGSGEWNPFLVAPFSNNSISRKDGQESAFMMDDSHFGMVFDEIRRKEIPAELDSETSSIDSRDPFGAAPFDQLTVSTSSSAQPVSLPPATDEDDERQLLSETDEEEKYEIDEKEEIQTKKDETINEEDSEIDEQRMNDRRRYSYENIDGVGDDASSDSRGKTDRDDSEEEEDDDSRRGGDTSHDEDSQNTVGSEDGEGGSRPLLEDDGLEDDDDHELISSFSSSSTNYPPLFIGTSTPHTQNPITNPFLRDELTPKMIITAPLPTAKNNLDDDWDLGDRWTDRRDTVFERPASEHQNVFAPATLPRQATPLVCRFKPDLPTAAPVSIIPSMSNTSFPEAVRDSDTVPCEPIIGTLISVGAPTDPPPPPLPKKPTEASPTQETTATIPVALGKKEKLLKKEKKKEKKDGKKDKLKLEEYREKGSSEPETDGSEAEIWTNDGATTFSNKKKKKSTFGLRSSHPSIVANDLQFSSPMPPVVKKSSKDKKSSLTGKNASFVNTSFQPEDHDDPTDL” here?
**A.** soluble

**Q.** With “MKLNFSLYRYNPDVDNKPYMKDYILEVEEGSDMMVLDALILLKEQDPSIAFRRSCREGVCGSDGLNMNGKNGLACITPLSALKGDKIVIRPLPGLPVVRDLIVDMTQFYDNYAKVKPFLIADDALPPSRENLQSPEERAHLDGLYECIMCACCTTSCPSFWWNPDKFIGPAGLLAAYRWLIDSRDTATDERLSNLDDAFSVFRCHGIMNCVSVCPKGLNPTKAIGHIKSMLINRSV” as the sequence, how does the “soluble on expression in E. coli” value read?
**A.** not soluble
